The values below come from patent US12391751B2, “Antibody against advanced glycation end products and use thereof” (Bloom Technology Corporation, priority 2018, dated 2025).

What all share (format): binding
Assay [1] is described as follows: Reactivity of SJ-5 with GLAP by competitive ELISA (Example 13). The note with it: immobilized Glycer-AGEs-BSA. The procedure: A solution of BSA containing AGEs derived from glyceraldehyde (stock solution: 10 mg/mL PBS solution) prepared into 1 μg/mL in a coating solution was added at 100 μL/well to a 96-well microtiter plate (COSTAR) and incubated overnight at 4° C.
(§1) Each well after the immobilization treatment was washed three times with a washing solution (300 μL), and a blocking solution (200 μL) was added thereto and left at room temperature for 1 hour.
GAL13 (prepared in Example 2), GLAP (prepared in Example 12), and Z-Lys-OH (Tokyo Chemical Industry Co., Ltd.) were each dissolved in a phosphate buffer solution (0.2 M, pH 7.4) to prepare a 20 mg/mL solution. Sample solutions of 2-fold dilution series from 0.0063 to 2 mg/mL (6 points) were further prepared by dilution with a diluting solution. A POD-labeled novel monoclonal antibody (SJ-5) solution was diluted 16,000-fold with a diluting solution containing BSA (1 mg/mL, FUJIFILM Wako Pure Chemical Corp.) to prepare a POD-labeled SJ-5 antibody dilution solution. […]
(§2) Absorbance was measured at a dominant wavelength of 450 nm and a sub-wavelength of 650 nm with a microplate reader (Cytation 5, BioTek Instrument Inc.), and the absorbance at the sub-wavelength was subtracted from the absorbance at the dominant wavelength.
(In general: An ELISA detects its analyte on a solid surface through an enzyme-linked reagent.)

Assay [2] can be described thus: Reactivity of PB-1 with known AGEs by competitive ELISA (Example 31). The note with it: immobilized A-peak-BSA. The procedure: Competitive ELISA was conducted using the reagents described in Example 13. A solution of A-peak-BSA prepared into 1 μg/mL in a coating solution was added at 100 μL/well to a 96-well microtiter plate (Costar) and incubated overnight at 4° C.
as §1
GAL691 (prepared in Example 16), GLAP (prepared in Example 12), Lys-hydroxy-triosidine (prepared in Example 17), GA-pyridine (prepared in Example 28), GOLD (prepared in Example 29), and Z-Lys were each dissolved in a phosphate buffer solution (0.2 M, pH 7.4) to prepare a 100 mM solution. Then, a 10 mM solution was prepared by dilution 10-fold with a diluting solution containing BSA (1 mg/mL, FUJIFILM Wako Pure Chemical Corp.). Sample solutions of 4-fold dilution series of 0.04, 0.16, 0.63, and 2.5 mM were further prepared with a diluting solution containing a 10% (v/v) phosphate buffer solution and 1 mg/mL BSA. Ten-fold dilutions of a phosphate buffer solution with a diluting solution containing 1 mg/mL BSA were prepared as blank solutions containing no sample in the same way as above. A 0.1 μg/mL solution of the PB-1 antibody was prepared with a diluting solution containing 1 mg/mL BSA.
Each well treated with the blocking solution was washed three times with a washing solution (300 μL), and the sample solutions of 4-fold dilution series (50 μL each) and the PB-1 antibody dilution solution (50 μL) were added thereto, stirred with a plate mixer for 2 minutes, and then incubated at room temperature for 1 hour.
After the competitive reaction, each well was washed three times with a washing solution (300 μL), and peroxidase-labeled anti-mouse IgG (H+L) polyclonal antibody, F(ab′)2 fragment (Kirkegaard & Perry Laboratories, Inc.) diluted into 0.05 μg/mL with a diluting solution containing 1 mg/mL BSA was added at 100 μL/well and left standing at room temperature for 1 hour.
After washing three times with a washing solution (300 μL), a substrate solution (ELISA POD substrate TMB kit (Popular), Nacalai Tesque, Inc.) was added at 100 μL/well and incubated at room temperature for 10 minutes under light shielding. Then, color development was terminated by the addition of 2 N sulfuric acid (50 μL).
Absorbance was measured at a dominant wavelength of 450 nm and a sub-wavelength of 650 nm with a microplate reader (Cytation 5, BioTek Instrument Inc.), and the absorbance at the sub-wavelength was subtracted from the absorbance at the dominant wavelength. Change in the absorbance of GAL691, GLAP, Lys-hydroxy-triosidine, GA-pyridine, GOLD, and Z-Lys was indicated as relative values to the absorbance of the blank solution.

Assay [3] has as its target T1, reaction of the SJ-5 antibody with A-peak-BSA (Bos taurus, UniProt P02769).
T1 construct: made in house
As to the kind of experiment: Cross-competition with HRP-labeled SJ-5 antibody by competitive ELISA (Example 33). The note with it: competitor antibody 0.049 to 50 μg/mL. As for the experimental part: A solution of A-peak-BSA prepared into 1 μg/mL in a coating solution was added at 100 μL/well to a 96-well microtiter plate (Costar) and incubated overnight at 4° C.
Each well after the immobilization treatment was washed three times with a washing solution (300 μL), and PBS containing 0.05% Tween 20 (PBS-T) and containing 0.5% gelatin dissolved therein (200 μL) was added thereto and left standing at room temperature for 1 hour.
The PB-1 antibody, a mouse IgG isotype control (Ctrl-mIgG, Thermo Fisher Scientific Inc.), and the anti-GA-pyridine antibody 2A2 (Cosmo Bio Co., Ltd.) were each diluted with PBS-T containing 0.1% gelatin to prepare 4-fold dilution series (0.049 to 50 μg/mL). Also, a HRP-labeled SJ-5 antibody (Example 4) was diluted 10000-fold with PBS-T containing 0.1% gelatin.
Each well treated with the blocking solution was washed three times with a washing solution (300 μL), and the sample solutions of 4-fold dilution series (50 μL each) and the HRP-labeled SJ-5 antibody dilution solution (50 μL) were added thereto, stirred with a plate mixer for 2 minutes, and then incubated at room temperature for 1 hour. […]
as §2

T1 sequence (P02769 25-607): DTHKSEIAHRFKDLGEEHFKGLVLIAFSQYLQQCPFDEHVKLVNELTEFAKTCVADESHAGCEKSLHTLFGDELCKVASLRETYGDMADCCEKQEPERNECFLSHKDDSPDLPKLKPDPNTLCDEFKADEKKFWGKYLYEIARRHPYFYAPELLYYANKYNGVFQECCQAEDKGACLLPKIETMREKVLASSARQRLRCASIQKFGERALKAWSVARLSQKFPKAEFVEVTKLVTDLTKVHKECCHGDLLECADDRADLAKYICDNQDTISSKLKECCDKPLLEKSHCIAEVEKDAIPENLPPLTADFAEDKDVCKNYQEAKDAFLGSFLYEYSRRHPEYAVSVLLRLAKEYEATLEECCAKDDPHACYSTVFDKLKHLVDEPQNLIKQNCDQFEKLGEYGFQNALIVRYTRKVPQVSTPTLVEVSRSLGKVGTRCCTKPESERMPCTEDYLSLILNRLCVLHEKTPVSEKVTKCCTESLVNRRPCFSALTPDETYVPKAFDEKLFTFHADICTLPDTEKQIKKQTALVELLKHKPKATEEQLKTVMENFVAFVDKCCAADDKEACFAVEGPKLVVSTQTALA

B1: SJ-5: mouse monoclonal antibody raised against GAL13-MSA; heavy-chain variable region SEQ ID NO 4, light-chain variable region SEQ ID NO 8 (antibody, listed as Mus musculus, V domains shown)
VH: EVMLVESGGRLVKPGGSLKLSCAASGFTFSSYGMSWVRQTPEKRLEWVATISGGGSYTYYPDSVKGRFTISRDNVKNNLYLQMSSLRSEDTALYYCARRGAYGDYGWFAYWGQGTLVTVSA
VL: DIVLTQSPATLSVTPGDSVSLSCRASQSINNNLHWYQQKSHESPRLLIKCASQSISGIPSRFSGSGSGTDFTLSINSVETEDFGMYFCQQSNSWPLTFGAGTKLELK
For the molecule B1, the “recognition of GLAP” value in assay [1] is given as “does not recognize”.

B2: PB-1: mouse monoclonal antibody raised against A-peak-BSA; heavy-chain variable region SEQ ID NO 18, light-chain variable region SEQ ID NO 22 (antibody, listed as Mus musculus, V domains shown)
VH: EVRLQQSGPELVKPGTSVKISCKASGYSFTGYYMHWVKQSPVKSLEWIGRIIPYNGATSYNQNFKDKASLTVDKSSRTAYMDLHSLTSEDSAVYYCARSRYYGRAPYYFDYWGQGTTLTVSS
VL: DVVVTQTPLSLPVSLGDQASISCRSSQSIVHSNGNTYLEWYLQKPGQSPKLLIYKVSNRFSGVPDRISGSGSGTDFTLKISRVEAGDLGVYSCFQGSHVPFTFGSGTKLEIK
For the molecule B2, in assay [2], the “recognition of GA-pyridine” value is given as “does not recognize”, the “recognition of GLAP” value is “does not recognize”, the “recognition of GOLD” value is given as “does not recognize” and the “recognition of Lys-hydroxy-triosidine” value is given as “does not recognize”. For the same molecule, the “change in absorbance of HRP-labeled SJ-5 binding to A-peak-BSA (cross-competition)” value in assay [3] is on record as “decreased in a PB-1 concentration-dependent manner”.
